Reference: the supplement of paper PMC10567573

B1: FAM50A (parent)
chain: KKREKQREQMEQMKQRIAEENIMK

Variants of: B1
Experiment: protein stability index of a GFP-peptide fusion (GPS, HEK-293T) (PSI 1-6); higher = more stable
Details: c terminus: a fixed tail appended
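Note: lentivirally expressed fusions sorted by FACS into six bins by GFP to DsRed ratio, PSI derived from sequencing read proportions per bin multiplied by bin number.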

Protein stability index of substitutions, site by site:
A18: T 4.59; Q 5.31; Y 4.43; L 4.72; W 4.09; G 4.64; I 4.36; F 4.84; S 4.78; V 4.69; H 4.19; E 4.62; D 5.35; K 3.97; R 4.39; C 4.35; P 4.79; N 4.93; M 4.12
Q6: K 4.67; H 4.7; Y 4.14; A 4.48; V 4.49; M 4.62; S 4.96; T 4.9; G 4.62; E 4.81; C 4.17; L 4.13; W 3.96; P 4.57; D 5.06; N 5.3; F 4.13; I 4.67
K14: I 4.05; L 4.11; R 4.59; A 5.21; F 4.32; C 4.57; S 5.06; D 5.02; T 4.3; N 4.86; H 5.01; M 4.53; Y 4.39; E 5.01; G 5.02; V 4.63; W 3.9; Q 5.15; P 5.67
Q15: E 5.51; Y 4.14; L 4.7; W 4.29; T 4.85; G 4.68; A 4.67; M 4.5; C 4.19; S 4.9; F 4.44; D 5.02; I 4.51; P 4.9; V 4.36; H 4.84; N 4.8; K 4.4; R 4.73
R7: D 5.39; S 5.51; I 4.96; T 4.84; P 4.7; A 4.91; L 4.95; V 4.98; H 5.08; N 4.93; Y 4.76; W 4.13; C 4.71; F 4.52; K 4.81; M 4.52; G 5.21; E 5.81; Q 5.25
E8: W 3.68; Q 4.82; M 4.58; Y 4.23; H 3.74; V 4.37; C 4.15; N 4.44; S 4.41; F 4.29; I 4.51; P 4.89; R 4.71; A 4.96; D 4.63; G 4.85; T 4.31; K 4.48; L 4.57
R16: Y 5.15; K 4.83; P 5.19; H 5.09; C 4.81; F 4.52; Q 4.97; L 4.51; V 5.02; D 5.56; I 4.71; S 5.52; M 4.89; A 5.42; G 5.32; E 5.53; N 4.67; W 3.94; T 5.01
Q9: T 4.72; P 4.89; M 4.4; D 4.96; S 4.74; W 4.13; L 4.92; K 4.93; I 4.01; N 4.8; R 4.56; E 5.18; A 4.86; G 4.75; C 4.73; Y 4.51; H 4.68; V 4.67; F 4.16
K2: W 4.58; V 4.52; T 5.07; Y 4.22; Q 4.75; S 5.01; R 5.03
E11: D 5.03; C 4.13; L 3.96; G 4.48; N 4.86; K 4.5; S 4.41; W 3.9; M 4.17; H 4.62; I 4.4; T 4.57; P 4.74; R 4.49; F 4.15; Q 4.68; V 4.66; Y 4.25
R3: N 5.08; Y 4.04; F 4.61; C 4.91; V 5.21; P 5.26; W 4.25; S 4.78; K 5.06; L 4.93; T 5.2; Q 5.48; D 5.11; G 5.18; H 4.65; I 5.16; E 5.29; A 5.17; M 5.04
M10: V 4.37; K 4.71; C 4.86; Q 4.86; A 4.92; H 5.16; N 4.9; D 4.81; L 4.07; R 5.14; T 4.69; Y 4.61; S 4.89; W 4.7; G 5.19; P 5.15; E 5.14; I 4.7; F 4.15
E19: S 4.33; N 4.34; A 4.63; W 3.66; Q 4.72; D 4.33; M 4.09; I 2.92; V 3.47; R 4.98; K 5.08; P 4.19; Y 4.38; T 4.78; C 3.9; L 3.22; G 4.78; H 4.6; F 3.71
Q12: M 4.27; D 5.02; V 5.07; N 5.04; A 4.44; W 4.45; R 4.39; H 4.58; K 4.57; F 3.71; G 4.66; E 5.28; Y 4.55; S 4.84; P 4.9; C 5.05; T 4.7; L 4.55; I 4.63
M13: Y 3.98; T 5.31; F 4.67; C 5.03; V 4.82; Q 5.26; P 4.99; W 2.63; N 5.21; S 5.31; H 4.65; L 5.37; A 4.95; G 5.27; K 4.77; D 5.13; I 4.29; R 5.08; E 5.5
K5: H 5.12; E 5.26; C 5.05; W 4.46; S 4.92; F 4.8; I 4.76; D 4.75; M 4.95; N 5.25; V 4.96; G 4.55; A 4.38; Y 4.11; R 4.62; P 5.34; Q 4.39; L 4.68; T 5.16
E4: K 4.28; R 4.32; G 4.71; A 5.04; N 4.37; T 4.09; I 4.53; W 3.96; L 4.21; V 4.49; H 4.38; C 4.42; P 4.42; S 4.47; M 4.5; D 5.21; F 4.39; Q 4.79; Y 4.27
I17: S 5.3; R 4.77; C 4.37; G 5.41; F 5.12; E 5.1; T 5.3; W 4.25; Q 5.44; K 4.25; H 5.02; D 5.3; P 5.52; A 5.39; N 5.2; M 4.87; V 4.87; L 4.92; Y 4.46
E20: A 4.47; C 4.53; H 4.39; D 4.85; F 3.79; G 4.34
